Results taken from the RNAGym collection of RNA variant scans (doi:10.1073/pnas.2313332121).
This sample holds only a part of the variants without activity.

B1: TPR 5TU (parent)
chain: GGAUCUUCUCGAUCUAACAAAAAAGACAAAUCUGCCACAAAGCUUGAGAGCAUCUUCGGAUGCAGAGGCGGCAGCCUUCGGUGGCGCGAUAGCGCCAACGUUCUCAACUAUGACACGCAAAACGCGUGCUCCGUUGAAUGGAGUUUAUCAUG

Variants of: B1
Assay: polymerase ribozyme fitness, log enrichment relative to wild type (log ratio); higher = more active; in vitro selection for triplet polymerase activity
In short: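 Fitness is a logarithmic measure of how a genotype enriched relative to the wild type, with replicate averages weighted by inverse variance. The logarithm uses base 2, and enrichment came from Illumina sequencing of input and output libraries. Those libraries were PCR-built, transcribed mutants of each subunit of a heterodimeric triplet polymerase ribozyme, passed through one triplicate in vitro selection round that included frozen incubation at −7 °C, gel excision of extended constructs and streptavidin-bead capture. Genotypes were kept only if they had ≥10 input reads and ≥1 read per output.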

Variant | polymerase ribozyme fitness (log ratio)
U13C G50U G59A U82C A121U G136A | -1.14
C14A C85A C129U | -2.79
A12U A39U U55A G68A C96U U145G | ≤ -4.2
C14G A29G U33C A37U U111G G124U U134A | ≤ -4.2
C14A G59A U82A G84U | -4.06
A12U C79U C93G C132G | ≤ -4.2
A12U U55A C57G C103A G128U A147C | -4.11
C14G C57U | -2.06
C14G C57A | -1.52
A12U G92U C125U | -1.06
A12U G71A C75U G84A C85U G117A | ≤ -4.2
A12U U53A G141U | -1.08
C14G A52C G58A C96U C125G | -3.92
U13G G59U C96U | -0.998
A12U A26U G46C C57U C93U C125G U127G A138G | ≤ -4.2
C14G A39G U53A C54U C93A | ≤ -4.2
C14G C27G U55G G68A U82A G94C A107U A142G | ≤ -4.2
C14U A28U A52C G88U A91G C96U U134G G140U | ≤ -4.2
C14G A17G G46C G81A C96G A120G | ≤ -4.2
U13G A19C A29G G50C U127C | ≤ -4.2
U13G A29U C38G G70U G117U A120U C149U | ≤ -4.2

Variant | polymerase ribozyme fitness (log ratio)
U13A | -0.225
U13C | -0.269
U13G | -0.261
U13A A20U C35A G50A G83C C118G A119U C132U | ≤ -4.2
U13C A16U G84A U109G | -1.88
C14G U55A C96U | -3.27
U13G C27G C51A G84C A142G A147C | ≤ -4.2
C14A A40G C43G G86U U135C G143C U148G | ≤ -4.2
C14G C36A A52G A66C C93U C125A | ≤ -4.2
C14U A21C C27U C36A G62U G80C G86A A137C | -3.96
C14A A16C U56G C57G A91C G136U | ≤ -4.2
A12U A122U A147C | -0.484
C14G G46U G48A A73U U77C | ≤ -4.2
C14A A20U A60G A66U C93G | ≤ -4.2
C14G C72U | -3.04
C14G G88U G140A | ≤ -4.2
C14G C35A G42C A66G C96G G117U | ≤ -4.2
C14G A22G G25A A28C G50C G84U U104G | ≤ -4.2
U13G A21C C27A U55A C99A C103G | ≤ -4.2
C14U A66C U78G C95G C108U | ≤ -4.2
C14A C38U G84U | -3

Variant | polymerase ribozyme fitness (log ratio)
C14U A41U U56A C93A C123A | ≤ -4.2
C14G C35G U82G G92A C96A G100A C116G A120G G141A U144A | ≤ -4.2
C14A U82A G92A | ≤ -4.2
U13G G48A C93A C125G | ≤ -4.2
U13G G50U C93U | -3.9
C14G U15A C18U G25U C27G G62A C85G A138C | ≤ -4.2
A12U G34C G46A G83A A121U G141U | ≤ -4.2
C14G A28C A47G U53A G84U | ≤ -4.2
A12U C27G C36U C131U | ≤ -4.2
U13A A41G C85G A147G | -2.67
U13C C18G A21U A40C U53G A60U U61A G94U G100A G126A | ≤ -4.2
U13G C32A G86C A107G C125G U135A | ≤ -4.2
U13G U15A C51U C96A A121G | -2.76
U13A U45A G84A | ≤ -4.2
C14G G25A U55A U127C | ≤ -4.2
C14G U15C C18U A39U A49C G80C A110C | ≤ -4.2
U13G A22G A24U A28G C76U U78A C79G G81A U102G C114A | ≤ -4.2
U13C U148C | -2.48
C14U A39C G71C C85U A97G | ≤ -4.2
C14G C75U | -2.58
U13C U56A A60G C95U C105G U109G C132A U145G | ≤ -4.2

Variant | polymerase ribozyme fitness (log ratio)
U13C A21G U31C G42A A52C C95A C129G | ≤ -4.2
C14A A17C C93U C116G | -2.99
A12U U33A C35G C57A U77C U101C U134A | ≤ -4.2
U13C C54U C87U | -1.35
U13G U111G | ≤ -4.2
A12U A47G C76A C85G | -3.78
U13A C35U C57U | -1.42
C14U A16U C27A A30G G42U C51U C93A | ≤ -4.2
C14A G94U A107G | ≤ -4.2
C14G A20U U55A C85A C105U U134A | ≤ -4.2
C14G A21G G34A A37C G50C C57G A60C A64G | ≤ -4.2
A12U A39U A73U G80A C93A G141U | ≤ -4.2
U13G G42A U56G G86U G133C G143U U146C | ≤ -4.2
C14G A24U A30U U44A C54A C87U G112U | -4.11
U13G C85U A106G G126U G140C | -3.96
U13G U56A C57U C87A G88C A89U A121U C125A U148A | ≤ -4.2
U13G A37U U55A C57A C76U G86A U127C | ≤ -4.2
U13G U31C A40G G58U U78C C85G C114U G141U | ≤ -4.2
U13C C14G C57A U101G | -1.23
U13G A30C G50C U82A A110C G136U | ≤ -4.2
